Experimental data from article doi:10.1101/2024.07.02.601760, “Multi-dimensional demarcation of phylogenetic groups of plant 14-3-3 isoforms using biochemical signatures” (bioRxiv, 2024).

Target: the molecule itself
Experiment: SEC-MALS; Superdex 200 Increase 10/300, 0.8 ml/min; 65 µl of ~3 mg/ml or 100 μM per monomer loaded; 20 mM Tris-HCl pH 7.5, 150 mM NaCl, 5 mM βME, 3 mM NaN3; samples before preparative SEC; self-association, monomers to dimer (small tetramer peak for six isoforms)

| Protein | stoichiometry N |
| --- | --- |
| Arabidopsis thaliana 14-3-3 nu (natural protein, UniProt Q96300 1-265, looked up, 14-3-3 nu, Arabidopsis thaliana (Col-0), non-epsilon group; source: E. coli BL21(DE3), purified (IMAC, thrombin cleavage of the His6-tag, subtractive IMAC, preparative SEC; aliquots before preparative SEC for SEC-MALS)) MSSSREENVYLAKLAEQAERYEEMVEFMEKVAKTVDTDELTVEERNLLSVAYKNVIGARRASWRIISSIEQKEESRGNDDHVSIIKDYRGKIETELSKICDGILNLLDSHLVPTASLAESKVFYLKMKGDYHRYLAEFKTGAERKEAAESTLVAYKSAQDIALADLAPTHPIRLGLALNFSVFYYEILNSPDRACSLAKQAFDEAISELDTLGEESYKDSTLIMQLLRDNLTLWNSDINDEAGGDEIKEASKHEPEEGKPAETGQ | 2 |
| Arabidopsis thaliana 14-3-3 omega (natural protein, 14-3-3 omega, Arabidopsis thaliana, non-epsilion group; pET28a construct obtained by gene synthesis; source: E. coli BL21(DE3), purified (IMAC, thrombin cleavage of the His6-tag, subtractive IMAC, preparative SEC; aliquots before preparative SEC for SEC-MALS)) MASGREEFVYMAKLAEQAERYEEMVEFMEKVSAAVDGDELTVEERNLLSVAYKNVIGARRASWRIISSIEQKEESRGNDDHVTAIREYRSKIETELSGICDGILKLLDSRLIPAAASGDSKVFYLKMKGDYHRYLAEFKTGQERKDAAEHTLAAYKSAQDIANAELAPTHPIRLGLALNFSVFYYEILNSPDRACNLAKQAFDEAIAELDTLGEESYKDSTLIMQLLRDNLTLWTSD | 2 |
| Arabidopsis thaliana 14-3-3 chi (natural protein, UniProt P42643 1-267, looked up, 14-3-3 chi, Arabidopsis thaliana, non-epsilon group; source: E. coli BL21(DE3), purified (IMAC, thrombin cleavage of the His6-tag, subtractive IMAC, preparative SEC; aliquots before preparative SEC for SEC-MALS)) MATPGASSARDEFVYMAKLAEQAERYEEMVEFMEKVAKAVDKDELTVEERNLLSVAYKNVIGARRASWRIISSIEQKEESRGNDDHVSLIRDYRSKIETELSDICDGILKLLDTILVPAAASGDSKVFYLKMKGDYHRYLAEFKSGQERKDAAEHTLTAYKAAQDIANSELAPTHPIRLGLALNFSVFYYEILNSPDRACNLAKQAFDEAIAELDTLGEESYKDSTLIMQLLRDNLTLWTSDMQDDVADDIKEAAPAAAKPADEQQS | 2 |
| Arabidopsis thaliana 14-3-3 mu (natural protein, UniProt Q96299 1-263, looked up, 14-3-3 mu, Arabidopsis thaliana, epsilon group; pET28a construct obtained by gene synthesis; source: E. coli BL21(DE3), purified (IMAC, thrombin cleavage of the His6-tag, subtractive IMAC, preparative SEC; aliquots before preparative SEC for SEC-MALS)) MGSGKERDTFVYLAKLSEQAERYEEMVESMKSVAKLNVDLTVEERNLLSVGYKNVIGSRRASWRIFSSIEQKEAVKGNDVNVKRIKEYMEKVELELSNICIDIMSVLDEHLIPSASEGESTVFFNKMKGDYYRYLAEFKSGNERKEAADQSLKAYEIATTAAEAKLPPTHPIRLGLALNFSVFYYEIMNAPERACHLAKQAFDEAISELDTLNEESYKDSTLIMQLLRDNLTLWTSDISEEGGDDAHKTNGSAKPGAGGDDAE | 2 |
| Arabidopsis thaliana 14-3-3 iota (natural protein, UniProt Q9C5W6 1-268, looked up, 14-3-3 iota, Arabidopsis thaliana, epsilon group; pET28a construct obtained by gene synthesis; also called iota WT; source: E. coli BL21(DE3), purified (IMAC, thrombin cleavage of the His6-tag, subtractive IMAC, preparative SEC; aliquots before preparative SEC for SEC-MALS)) MSSSGSDKERETFVYMAKLSEQAERYDEMVETMKKVARVNSELTVEERNLLSVGYKNVIGARRASWRIMSSIEQKEESKGNESNVKQIKGYRQKVEDELANICQDILTIIDQHLIPHATSGEATVFYYKMKGDYYRYLAEFKTEQERKEAAEQSLKGYEAATQAASTELPSTHPIRLGLALNFSVFYYEIMNSPERACHLAKQAFDEAIAELDTLSEESYKDSTLIMQLLRDNLTLWTSDLPEDGGEDNIKTEESKQEQAKPADATEN | 2 |
| Arabidopsis thaliana 14-3-3 lambda (natural protein, UniProt P48349 1-248, looked up, 14-3-3 lambda, Arabidopsis thaliana, non-epsilon group; construct provided by Prof; Robert J. Ferl; source: E. coli C41(DE3), purified (IMAC, thrombin cleavage of the His6-tag, subtractive IMAC, preparative SEC; aliquots before preparative SEC for SEC-MALS)) MAATLGRDQYVYMAKLAEQAERYEEMVQFMEQLVTGATPAEELTVEERNLLSVAYKNVIGSLRAAWRIVSSIEQKEESRKNDEHVSLVKDYRSKVESELSSVCSGILKLLDSHLIPSAGASESKVFYLKMKGDYHRYMAEFKSGDERKTAAEDTMLAYKAAQDIAAADMAPTHPIRLGLALNFSVFYYEILNSSDKACNMAKQAFEEAIAELDTLGEESYKDSTLIMQLLRDNLTLWTSDMQEQMDEA | 2 |
| Arabidopsis thaliana 14-3-3 psi (natural protein, UniProt P42644 1-255, looked up, 14-3-3 psi, Arabidopsis thaliana, non-epsilon group; construct provided by Prof; Robert J. Ferl; source: E. coli C41(DE3), purified (IMAC, thrombin cleavage of the His6-tag, subtractive IMAC, preparative SEC; aliquots before preparative SEC for SEC-MALS)) MSTREENVYMAKLAEQAERYEEMVEFMEKVAKTVDVEELSVEERNLLSVAYKNVIGARRASWRIISSIEQKEESKGNEDHVAIIKDYRGKIESELSKICDGILNVLEAHLIPSASPAESKVFYLKMKGDYHRYLAEFKAGAERKEAAESTLVAYKSASDIATAELAPTHPIRLGLALNFSVFYYEILNSPDRACSLAKQAFDDAIAELDTLGEESYKDSTLIMQLLRDNLTLWTSDMTDEAGDEIKEASKPDGAE | 2 |
| Arabidopsis thaliana 14-3-3 upsilon (natural protein, UniProt P42645 1-268, looked up, 14-3-3 upsilon, Arabidopsis thaliana (Col-0), non-epsilon group; source: E. coli BL21(DE3), purified (IMAC, thrombin cleavage of the His6-tag, subtractive IMAC, preparative SEC; aliquots before preparative SEC for SEC-MALS)) MSSDSSREENVYLAKLAEQAERYEEMVEFMEKVAKTVETEELTVEERNLLSVAYKNVIGARRASWRIISSIEQKEDSRGNSDHVSIIKDYRGKIETELSKICDGILNLLEAHLIPAASLAESKVFYLKMKGDYHRYLAEFKTGAERKEAAESTLVAYKSAQDIALADLAPTHPIRLGLALNFSVFYYEILNSSDRACSLAKQAFDEAISELDTLGEESYKDSTLIMQLLRDNLTLWTSDLNDEAGDDIKEAPKEVQKVDEQAQPPPSQ | 2 |
| Arabidopsis thaliana 14-3-3 epsilon (natural protein, UniProt P48347 1-254, looked up, 14-3-3 epsilon, Arabidopsis thaliana, epsilon group; pET28a construct obtained by gene synthesis; source: E. coli BL21(DE3), purified (IMAC, thrombin cleavage of the His6-tag, subtractive IMAC, preparative SEC; aliquots before preparative SEC for SEC-MALS)) MENEREKQVYLAKLSEQTERYDEMVEAMKKVAQLDVELTVEERNLVSVGYKNVIGARRASWRILSSIEQKEESKGNDENVKRLKNYRKRVEDELAKVCNDILSVIDKHLIPSSNAVESTVFFYKMKGDYYRYLAEFSSGAERKEAADQSLEAYKAAVAAAENGLAPTHPVRLGLALNFSVFYYEILNSPESACQLAKQAFDDAIAELDSLNEESYKDSTLIMQLLRDNLTLWTSDLNEEGDERTKGADEPQDEN | 2 |
| Arabidopsis thaliana 14-3-3 phi (natural protein, UniProt P46077 1-267, looked up, 14-3-3 phi, Arabidopsis thaliana, non-epsilon group; construct provided by Prof; Robert J. Ferl; source: E. coli C41(DE3), purified (IMAC, thrombin cleavage of the His6-tag, subtractive IMAC, preparative SEC; aliquots before preparative SEC for SEC-MALS)) MAAPPASSSAREEFVYLAKLAEQAERYEEMVEFMEKVAEAVDKDELTVEERNLLSVAYKNVIGARRASWRIISSIEQKEESRGNDDHVTTIRDYRSKIESELSKICDGILKLLDTRLVPASANGDSKVFYLKMKGDYHRYLAEFKTGQERKDAAEHTLTAYKAAQDIANAELAPTHPIRLGLALNFSVFYYEILNSPDRACNLAKQAFDEAIAELDTLGEESYKDSTLIMQLLRDNLTLWTSDMQDESPEEIKEAAAPKPAEEQKEI | 2 |

Target: the molecule itself
Experiment: native gel or EMSA; native PAGE, Tris-glycine pH 8.6, 15% or 15-25% gradient acrylamide, 2 h at room temperature, samples 0.33 mg/ml in SEC buffer; self-association, dimer to monomers

| Protein | binding result |
| --- | --- |
| Arabidopsis thaliana 14-3-3 iota T32F (natural protein, UniProt Q9C5W6 1-268, looked up, 14-3-3 iota, Arabidopsis thaliana, single mutant T32F made by megaprimer PCR on pET28a-14-3-3 iota; Same limits as m9; also called M1; source: E. coli BL21(DE3), purified (IMAC, thrombin cleavage of the His6-tag, subtractive IMAC, preparative SEC)) MSSSGSDKERETFVYMAKLSEQAERYDEMVEFMKKVARVNSELTVEERNLLSVGYKNVIGARRASWRIMSSIEQKEESKGNESNVKQIKGYRQKVEDELANICQDILTIIDQHLIPHATSGEATVFYYKMKGDYYRYLAEFKTEQERKEAAEQSLKGYEAATQAASTELPSTHPIRLGLALNFSVFYYEIMNSPERACHLAKQAFDEAIAELDTLSEESYKDSTLIMQLLRDNLTLWTSDLPEDGGEDNIKTEESKQEQAKPADATEN | binds |
| Arabidopsis thaliana 14-3-3 iota G54A (natural protein, UniProt Q9C5W6 1-268, looked up, 14-3-3 iota, Arabidopsis thaliana, single mutant G54A made by megaprimer PCR on pET28a-14-3-3 iota; Same limits as m9; also called M3; source: E. coli BL21(DE3), purified (IMAC, thrombin cleavage of the His6-tag, subtractive IMAC, preparative SEC)) MSSSGSDKERETFVYMAKLSEQAERYDEMVETMKKVARVNSELTVEERNLLSVAYKNVIGARRASWRIMSSIEQKEESKGNESNVKQIKGYRQKVEDELANICQDILTIIDQHLIPHATSGEATVFYYKMKGDYYRYLAEFKTEQERKEAAEQSLKGYEAATQAASTELPSTHPIRLGLALNFSVFYYEIMNSPERACHLAKQAFDEAIAELDTLSEESYKDSTLIMQLLRDNLTLWTSDLPEDGGEDNIKTEESKQEQAKPADATEN | binds |
| Arabidopsis thaliana 14-3-3 iota N84H (natural protein, UniProt Q9C5W6 1-268, looked up, 14-3-3 iota, Arabidopsis thaliana, single mutant N84H made by megaprimer PCR on pET28a-14-3-3 iota; Same limits as m9; also called M2; source: E. coli BL21(DE3), purified (IMAC, thrombin cleavage of the His6-tag, subtractive IMAC, preparative SEC)) MSSSGSDKERETFVYMAKLSEQAERYDEMVETMKKVARVNSELTVEERNLLSVGYKNVIGARRASWRIMSSIEQKEESKGNESHVKQIKGYRQKVEDELANICQDILTIIDQHLIPHATSGEATVFYYKMKGDYYRYLAEFKTEQERKEAAEQSLKGYEAATQAASTELPSTHPIRLGLALNFSVFYYEIMNSPERACHLAKQAFDEAIAELDTLSEESYKDSTLIMQLLRDNLTLWTSDLPEDGGEDNIKTEESKQEQAKPADATEN | binds |
